B1: RSPH3 (parent)
chain: LELQRQREARKRALARKQAQEQLR
B2: BCL2L13 (parent)
chain: QSLDQEILLKVKTEIEEELKSLDK

Variants of: B1
Assay: protein stability index of a GFP-peptide fusion (GPS, HEK-293T) (PSI 1-6); higher = more stable
Conditions: c terminus: a fixed tail appended
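Note: lentivirally expressed fusions sorted by FACS into six bins by GFP to DsRed ratio, PSI derived from sequencing read proportions per bin multiplied by bin number.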

Protein stability index of substitutions, site by site:
L1: D 4.08; R 4.4; F 3.22; N 4.27; P 4.45; C 4.05; M 4.24; A 3.16; S 3.85; Y 3.76; V 3.64; K 3.78; Q 3.82; H 3.96; G 4.14; I 3.29; E 4.26; T 3.34; W 2.71
R5: C 4.09; T 4.17; F 3.91; A 5.05; W 4.02; D 4.27; Y 4.19; Q 4.32; H 4.21; K 4.25; S 4.16; I 3.77; M 4.03; G 4.34; N 3.72; V 4.36; L 3.25; E 3.68; P 3.89
L3: G 4.43; Q 3.9; Y 3.89; D 4.14; P 4.18; V 4.29; K 4.17; R 3.54; S 4.14; C 3.12; H 4.42; M 3.6; I 3.74; N 3.86; E 5.04; A 4.14; T 4.35; F 3.81; W 3.52
Q6: F 3.35; A 4.14; C 3.17; Y 3.71; G 4.55; E 4.46; H 2.96; D 4.05; M 2.92; N 3.73; P 3.64; R 3.41; T 3.87; V 3.37; W 4.26; K 4.63; L 3.33; S 3.76; I 2.98
Q4: S 4.27; T 4.06; V 3.43; C 3.52; I 2.95; K 3.55; P 3.51; L 3.22; R 4.02; W 3.43; E 4.3; A 3.17; Y 3.03; D 3.96; F 3.12; H 4.2; N 3.76; M 2.32; G 3.41
E2: K 4.11; M 2.92; R 3.57; L 2.6; Q 3.93; Y 2.52; W 2.59; P 3.58; V 2.79; I 2.34; T 3.15; D 3.91; C 3.13; S 3.56; G 2.95; A 3.1; H 3; N 3.69; F 2.56

Variants of: B2
Assay: as above
Conditions: c terminus: a fixed tail appended

Protein stability index of substitutions, site by site:
S2: W 1.48; N 4.92; R 4.49; E 5.52; P 4.71; T 5.16
L3: P 4.59; M 5.47; Q 5.41; V 5.31; F 4.87; I 4.72; T 4.99; E 5.63; N 5.64; K 4.88; Y 5.07
Q5: Y 3.38; L 2.99; I 2.95; N 4.61; D 5.28; W 3.67; G 4.95; K 4.7; C 4.67; H 3.64; R 4.14
L8: F 5.14; C 5.55; V 5.32; T 5.71; W 2.91; Q 5.42; K 4.75; M 5.37; A 5.62; R 5.71; N 5.9
D4: N 4.52; F 2.34; E 4.58; I 2.28; A 4.27; K 4.55; R 3.63; L 2.79; S 4.42
E6: R 3.67; T 4.62; G 4.78; S 4.79; N 5.24
